Laboratory results as given in patent US5976535A, “Pretargeting protocols for the enhanced localization of cytotoxins to target sites and cytotoxic combinations useful therefore” (NeoRx Corporation, priority 1995, dated 1999).
Like-named read-outs stand apart in the source and are kept apart here.

What was measured:
[1] = in vivo; settings: mouse
Method: (§2) Time 0 inject (i.v.) 200 μg NR-LU-10-StrAv

[2] = test system: LS-180 tumor xenografts; assay: Two-step pretargeting of 131I-PIP-biocytin in tumor-bearing mice; format: in vivo, female nude mice; settings: 200 μg NR-LU-10-streptavidin at t=0; 42 μg at t=36 h
Method: At t=0, the mice were injected with 200 μg of NR-LU-10-streptavidin conjugate labeled with ^125 I using PIP-NHS (see Example IV.A.). At t=36 h, the mice received 42 μg of ^131 IPIP-biocytin.

[3] = test system: LS-180 tumor xenografts; assay: Tumor uptake of PIP-biocytin (two-step pretargeting); format: in vivo, tumored nude mice
Method: (§1) At 24 hours, the mice received an i.v. injection of PIP-I-131-biocytin (40 μCi) and an amount of cold carrier PIP-I-127 biocytin corresponding to doses of 42 μg (69,767 pmol), 21 μg (34,884 pmol), 5.7 μg (9468 pmol), 2.85 μg (4734 pmol) or 0.5 μg (830 pmol).

[4] = as above; format: in vivo, tumored nude mice; settings: mouse, tumor, 0.0005 mg; 0.5 μg dose; 120 hour time point (96 hours after administration); read-out: peak tumor uptake
Method: as §1

[5] = test system: LS-180 tumor; settings: mouse, in vivo
Method: as §2

[6] = test system: LS-180 human colon tumor xenografts
Method: The experimental protocol was as follows:
Group 1: Time 0, inject 100 μg ^125 I-labeled,
The three radiolabels employed in this protocol are capable of detection in the presence of each other.
Areas under the curves (AUC) and the ratio of AUCtumor /AUCblood were determined.

[7] = in vivo; cited from earlier work
[8] = target: T1, Streptavidin-agarose beads (Streptomyces avidinii, UniProt P22629); assay: Binding to streptavidin-agarose beads; settings: for Pellet: radioactivity bound to beads; for Supernatant: radioactivity not bound to beads
T1 construct: purchased Sigma S-1638
Method: B. Biotinylation of asialoorosomucoid clearing agent and orosomucoid control. 100 μl of 0.2 M sodium carbonate buffer, pH 9.2, was added to 2 mg (in 1.00 ml PBS) of PIP-125-labeled orosomucoid and to 2 mg PIP-125-labeled asialoorosomucoid. 60 μl of a 1.85 mg/ml solution of NHS-amino caproate biotin in DMSO was then added to each compound. The reaction mixtures were vortexed and allowed to sit at room temperature for 45 minutes. […]. Streptavidin-agarose beads (Sigma S-1638) or -pellets were washed with PBS, and 20 μg of each biotinylated, radiolabeled protein was added to 400 μl of beads and 400 μl of PBS, vortexed for 20 seconds and centrifuged at 14,000 rpm for 5 minutes. The supernatant was removed and the pellets were washed with 400 μl PBS. This wash procedure was repeated twice more, and the combined supernatants were assayed by placing them in a dosimeter versus their respective pellets.

[9] = format: in vivo, female BALB/c mice; settings: 5 minutes post-administration, percent injected dose of I-125-labeled protein
Method: A. Derivitization of orosomucoid. 10 mg human orosomucoid (Sigma N-9885) was dissolved in 3.5 ml of pH 5.5 0.1 M sodium acetate buffer containing 160 mM NaCl. 70 μl of a 2% (w/v) CaCl solution in deionized (D.I.) water was added and 11 μl of neuraminidase (Sigma N-7885), 4.6 U/ml, was added. The mixture was incubated at 37° C. for 2 hours, and the entire sample was exchanged over a Centricon-10® ultrafiltration device (available from Amicon, Danvers, Mass.) with 2 volumes of PBS. The asialoorosomucoid and orosomucoid starting material were radiolabeled with I-125 using PIP technology, as described in Example IV above.
In addition, two animals receiving each compound were sacrificed at 5 minutes post-administration and limited biodistributions were performed.

T1 sequence (P22629 25-183): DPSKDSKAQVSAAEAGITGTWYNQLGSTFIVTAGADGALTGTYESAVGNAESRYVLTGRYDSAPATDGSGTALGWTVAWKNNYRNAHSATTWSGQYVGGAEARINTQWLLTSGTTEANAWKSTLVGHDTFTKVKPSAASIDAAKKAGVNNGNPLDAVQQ

Q: Which results are given for `O=C(CCCCC1SCC2NC(=O)NC21)NCCCCC(NC(=O)c1ccc([131I])cc1)C(=O)O` (stereo not shown) [PIP-biocytin]?
A: half-life [1]: ~5 min; specific tumor localization, molecules per avidin molecule [2]: ≈ 1.5; absolute AUCtumor ([3]; mouse, in vivo): 9220; tumor localization ([3]; three highest doses (42, 21, 5.7 μg), 4 hours after injection): about 600 pmol/g; tissue uptake at 96 h [4]: 85 %ID/g; peak tumor uptake [5]: about 700 pMOL/G; tumor uptake [5]: above 500 pMOL/G

Q: For Avidin, which tumor uptake ([6]; at 25 h (antibody at time 0, avidin at 24 h)) is on record?
A: The tumor uptake was “about 250 pmol/g”.

Q: What about the tumor uptake ([6]; at 32 h (antibody at time 0, avidin at 24 h)) of the same molecule?
A: The tumor uptake was roughly 150 pmol/g.

Q: What about the tumor uptake ([6]; at 48 h (antibody at time 0, avidin at 24 h)) of the same molecule?
A: Its tumor uptake is roughly 50 pmol/g.

Q: And the tumor uptake ([6]; at 120 h (antibody at time 0, avidin at 24 h))?
A: Its tumor uptake is roughly 0 pmol/g.

Q: For TNF-alpha, which serum half-life [7] is on record?
A: Its serum half-life is 10 to 15 min.

Q: For “asialoorosomucoid: orosomucoid treated with neuraminidase to remove sialic acid residues”, which Pellet [8] is on record?
A: The Pellet was 8.0%.

Q: What about the Supernatant [8] of the same molecule?
A: The Supernatant was 92%.

Q: And the blood level [9]?
A: The blood level was 0.4%.

Q: What does the source list for “orosomucoid: human orosomucoid (alpha-1 acid glycoprotein, Sigma N-9885), I-125 labeled [reference compound]”?
A: Pellet [8]: 10%; Supernatant [8]: 90%; blood level [9]: 78%

B1: TNF-beta: tumor necrosis factor beta form, 171 amino acids (protein, UniProt P01374 35-205, looked up)
Lymphotoxin-alpha: LPGVGLTPSAAQTARQHPKMHLAHSTLKPAAHLIGDPSKQNSLLWRANTDRAFLQDGFSLSNNSLLVPTSGIYFVYSQVVFSGKAYSPKATSSPLYLAHEVQLFSSQYPFHVPLLSSQKMVYPGLQEPWLHSMYHGAAFQLTQGDQLSTHTDGIPHLVLSPSTVFFGAFAL
Q: For B1, which serum half-life [7] is on record?
A: The serum half-life was 10 to 15 min.
